Bridges are numbered along the chain shown (N, C = ends). Where no end group is shown, it is not given here.

The assay concerns the target T1, Her2 (UniProt P04626 23-652, limits assumed).
T1 construct: also called Her2/neu; Neu
In words: method not stated; affinity for Her2.

B1: AHNP peptide (peptide)
peptide: FCDGFYACYMDV
modifications: disulfide 2-8 (inferred)
notes: also called anti-Her2 peptide
The term Kd denotes the free concentration of one partner at which half of the binding sites on the other are occupied at equilibrium, for simple one-to-one binding. With B1, binding was characterised by a dissociation constant (Kd) of 350 nM.
